Numbering of substitutions follows the chain as printed. Names may count otherwise. “Also recorded” adds a separate entry of the source.
B1: pMT1_E153Y: pMT1 with E153Y (protein)
chain: MPQEARTPQQQVTADEVGDWYDKFGEVYHLTLGESVHCGLWFPPDAPVPQDMELVTMSSQAQDRYTDYLIETLDPKAGQHLLDIGCGTGRTALKAARQRGIAVTGVAVSKEQIAAANRLAAGHGLTERLTFEVADAMRLPYEDESFDCAWAIYSLCHMDRAKALGEAWRVLKPGGDLLVLESVVTEELTEPETALFETLYAANVPPRLGEFFDIVSGAGFHTLSLKDLSANLAMTMNVFALGVYSRRAEFTERFGAEFVDGLLAGLGSAQETLIRKTRFFMATLRKPAV
B2: pMT1_E153A: pMT1 with E153A (protein)
chain: B1 chain with Y153A
B3: pMT1_E153C: pMT1 with E153C (protein)
chain: B1 chain with Y153C
B4: pMT1_E153D: pMT1 with E153D (protein)
chain: B1 chain with Y153D
B5: pMT1_M236D: pMT1 with M236D (protein)
chain: B1 chain with Y153E, M236D
B6: pMT1_M236A: pMT1 with M236A (protein)
chain: B1 chain with Y153E, M236A
B7: pMT1_M236E: pMT1 with M236E (protein)
chain: B1 chain with Y153E, M236E
B8: pMT1_M236C: pMT1 with M236C (protein)
chain: B1 chain with Y153E, M236C
B9: pMT1_R160E (protein)
chain: B1 chain with Y153E, R160E
B10: pMT1_R160D (protein)
chain: B1 chain with Y153E, R160D
B11: pMT1_R160C: pMT1 with R160C (protein)
chain: B1 chain with Y153E, R160C
B12: pMT1_R160A: pMT1 with R160A (protein)
chain: B1 chain with Y153E, R160A
B13: pMT1_S182E: pMT1 with S182E (protein)
chain: B1 chain with Y153E, S182E
B14: pMT1_Y200D: pMT1 with Y200D (protein)
chain: B1 chain with Y153E, Y200D
B15: pMT1_Y200A: pMT1 with Y200A (protein)
chain: B1 chain with Y153E, Y200A
B16: pMT1_Y200C: pMT1 with Y200C (protein)
chain: B1 chain with Y153E, Y200C
B17: pMT1_Y200E: pMT1 with Y200E (protein)
chain: B1 chain with Y153E, Y200E
B18: D159L (protein)
chain: MPQEARTPQQQVTADEVGDWYDKFGEVYHLTLGESVHCGLWFPPDAPVPQDMELVTMSSQAQDRFTDYLIETLDPKAGQHLLDIGCGTGRPALKAARQRGIAVTGVAVSKEQIAAANRLAAGHGLTERLTFEVADAMRLPYEDESFDCAWAIESLDHMLRAKALGEAWRVLKPGGDLLVAEEVVTEELTEPETALFETLFALNVPPRLGEFFDIVSGAGFHTLSLKDLSADLAMTMNVFALGVYSRRAEFTERFGAEFVDGLLAGLGSAQETVIRKTRFFMATLRKPAV
modifications: Modified from pMT1
B19: D176L, A248V: pMT12 with D176L and A248V (protein)
chain: B18 chain with L159D, D176L, A248V
modifications: Modified from pMT1
B20: D176R (protein)
chain: B18 chain with L159D, D176R
modifications: Modified from pMT1
B21: P191V (protein)
chain: B18 chain with L159D, P191V
modifications: Modified from pMT1
B22: D176L: pMT12 with D176L (protein)
chain: B18 chain with L159D, D176L
modifications: Modified from pMT1
B23: D176V (protein)
chain: B18 chain with L159D, D176V
modifications: Modified from pMT1
B24: D176K (protein)
chain: B18 chain with L159D, D176K
modifications: Modified from pMT1
B25: Q11H (protein)
chain: B18 chain with Q11H, L159D
modifications: Modified from pMT1
B26: D176Y (protein)
chain: B18 chain with L159D, D176Y
modifications: Modified from pMT1

Experiment: Cell lysate reaction of pMT enzymes with psi-ionone, irones quantified by HS-SPME-GCMS
Type: biochemical
Details: pMT1_E153 mutants; AUC vs non-mutated (=1)
Procedure, shortened: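 pMT1 site-saturation mutants were expressed in E. coli BL21(DE3) and lysed, and lysates were incubated 2 days at 28 °C with 0.2 mM SAM and 10 mg/L psi-ionone (plus caryophyllene) in 50 mM Tris pH 7, 10 mM MgCl2. Cis-α-irone was measured by HS-SPME-GCMS peak area and given as fold change over non-mutated enzyme.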

Q: For B1, which “fold change in cis-α-irone produced” value is on record?
A: 0.0

Q: For B2, which “fold change in cis-α-irone produced” value is on record?
A: 0.1

Q: With B3 as the molecule, how does the “fold change in cis-α-irone produced” value read?
A: 0.0

Q: For B4, which “fold change in cis-α-irone produced” value is on record?
A: 0.2

Same assay, conditions: pMT1_M236 mutants; AUC vs non-mutated (=1)

Q: Which “fold change in cis-α-irone produced” value does the source give for B5 here?
A: 0.0

Q: For B6, which “fold change in cis-α-irone produced” value is on record?
A: 0.7

Q: With B7 as the molecule, how does the “fold change in cis-α-irone produced” value read?
A: 0.9

Q: With B8 as the molecule, how does the “fold change in cis-α-irone produced” value read?
A: 4.7

Same assay, conditions: pMT1_R160 mutants; AUC vs non-mutated (=1)

Q: For B9, which “fold change in cis-α-irone produced” value is on record?
A: 0.0

Q: Which “fold change in cis-α-irone produced” value does the source give for B10 here?
A: 0.0

Q: With B11 as the molecule, how does the “fold change in cis-α-irone produced” value read?
A: 1.5

Q: Which “fold change in cis-α-irone produced” value does the source give for B12 here?
A: 1.7

Same assay, conditions: pMT1_S182 mutants; AUC vs non-mutated (=1)

Q: With B13 as the molecule, how does the “fold change in cis-α-irone produced” value read?
A: 0.84

Same assay, conditions: pMT1_Y200 mutants; AUC vs non-mutated (=1)

Q: Which “fold change in cis-α-irone produced” value does the source give for B14 here?
A: 0.0

Q: With B15 as the molecule, how does the “fold change in cis-α-irone produced” value read?
A: 0.2

Q: Which “fold change in cis-α-irone produced” value does the source give for B16 here?
A: 0.1

Q: For B17, which “fold change in cis-α-irone produced” value is on record?
A: 0.0

Experiment: In-vivo cis-α-irone production screening of pMT7 and pMT12 mutants
Type: cell-based, Escherichia coli
Details: mutations made to pMT12; normalized to pMT12 (=1)
Description: Q60 was identified as another possible mutation site.
FIGS. 24a and 24b show the in-vivo and in-vitro cis-α-irone production of other possible single mutations to pMT12. The in-vitro results in FIG. 24b validate the mutations and in-vivo results in FIG. 24a. The mutations in FIG. 24 include Q11H (SEQ ID No. 23), V12R (SEQ ID No. 24), A95C (SEQ ID No. 25), H123Q (SEQ ID No. 26), E127T (SEQ ID No. 27), M137T (SEQ ID No. 28), D176V (SEQ ID No. 29), D176Y (SEQ ID No. 30). P191S (SEQ ID No. 31), P191V (SEQ ID No. 32), F212L (SEQ ID No. 33), S268H (SEQ ID No. 34), AND T272A (SEQ ID No. 35). The screening results in FIGS. 24 and 25 are semi-quantitative to identify beneficial mutants that give greater than one-fold change of irone production as compared to pMT12.
FIGS. 25a to 25c (and Table 4) show the in-vivo testing results of other possible mutations that may be made to pMT12 to improve its in-vivo production of cis-α-irone. FIGS. 25a to 25c each include two dotted lines to account for a 10% error bar to show the normalized fold change of 0.9 and 1.1.
The four plasmids were transformed into E. coli BL21 (DE3), ΔaroA, ΔaroB, ΔaroC, ΔserC or E. coli BL21 (DE3), ΔaroA, ΔaroB, ΔaroC, ΔserC, ΔmetJ strains and plated on Agar plate containing LB media (10 g, tryptone. 5 g, yeast extract. 10 g, NaCl) supplemented with appropriate antibiotics (100 mg/L ampicillin, 34 mg/L chloramphenicol, 50 mg/L kanamycin, and 100 mg/L spectinomycin). One colony was picked and inoculate into LB media with antibiotics. 1% of overnight culture was inoculated into 1 ml fresh auto-inducing chemically defined media. The chemical media contains carbon source solution: 0.5 g/L glucose, 10 g/L glycerol; inducer: 30 mM lactose and base media: 2 g/L ammonium sulfate, 4.2 g/L KH2PO4, 11.24 g/L K2HPO4, 1.7 g/L citric acid, 0.5 g/L MgSO4, and 10 mL/L trace element solution. The trace element solution (100×) contained 0.25 g/L CoCl2·6H2O, 1.5 g/L MnSO4·4H2O, 0.15 g/L CuSO4·2H2O, 0.3 g/L H3BO3, 0.25 g/L Na2MoO4·2H2O, 0.8 g/L Zn(CH3COO)2, 5 g/L Fe(III) citrate, and 0.84 g/L ethylenediaminetetra-acetic acid (EDTA) at pH 8.0. The culture was grown at 28° C. for 3 days and the products were extracted with 1 ml hexane for GCMS analysis. An example of a fed-batch process for α-ionone Is briefly described, overnight culture was inoculated into 2 L chemical media comprising the base media and 5 g/L glucose, at 37° C. and 30% DO. pH was controlled at 7 with base solution (14% ammonia and 0.5 M NaOH). Feed media (500 g/L glucose and 5 g/L MgSO4) was added into bioreactor once OD600 reached 5, at a rate of 7.15-25.75 g/h glucose for about 4-5 h until OD600 reached ˜30-40. Subsequently, 0.1 mM IPTG was added to induce the production, and feeding rate was kept at a constant rate of 10 g/h glucose, and the temperature was reduced to 30° C. DO was adjusted to 2% or 10%. Feeding was stopped at 113 h when 2 L feeding media was finished, but the culture was further incubated for 24 h. To capture the evaporated products, the exhaust was connected to 25 ml sunflower oil.

Q: For B18, which “Fold change in in-vivo cis-α-irone production” value is on record?
A: 1.55

Q: With B19 as the molecule, how does the “Fold change in in-vivo cis-α-irone production” value read?
A: 3.14

Q: For B20, which “Fold change in in-vivo cis-α-irone production” value is on record?
A: 1.80

Q: Which “Fold change in in-vivo cis-α-irone production” value does the source give for B21 here?
A: 1.26

Q: For B22, which “Fold change in in-vivo cis-α-irone production” value is on record?
A: 2.52

Q: For B23, which “Fold change in in-vivo cis-α-irone production” value is on record?
A: 2.24

Q: Which “Fold change in in-vivo cis-α-irone production” value does the source give for B24 here?
A: 1.90

Same assay, conditions: single mutations vs parent (pMT7 or pMT12)

Q: Which “in-vivo production of cis-α-irone (in words)” value (from here on “in-vivo production”) does the source give for B25 here?
A: significant increase

Q: Which “in-vivo production” value does the source give for B26 here?
A: significant increase

Q: For B18, which “in-vivo production” value is on record?
A: significant improvement

Q: With B19 as the molecule, how does the “in-vivo production” value read?
A: significant improvement

Q: For B20, which “in-vivo production” value is on record?
A: significant improvement

Q: With B21 as the molecule, how does the “in-vivo production” value read?
A: significant increase

Q: With B22 as the molecule, how does the “in-vivo production” value read?
A: significant improvement

Q: For B23, which “in-vivo production” value is on record?
A: significant increase; also recorded: significant improvement

Q: For B24, which “in-vivo production” value is on record?
A: significant improvement
